Measurements reported in US20170035894A1, “DRUG DELIVERY CONJUGATES FOR TREATING RESISTANT CANCER AND FOR USE IN COMBINATION THERAPY” (ENDOCYTE, INC., priority 2014, published 2017).
Entries after “also recorded” stand apart in the source; their conditions may differ. Marks after values point to notes of the source that are not given here.

What was measured:
[1] = test system: A549; test: In vitro activity against cancer cell lines, 3H-thymidine incorporation; type: cell-based, human; conditions: FR expression −; evaluated from 0.1-100 nM
Protocol: (§1) METHOD. In vitro activity against various cancer cell lines. IC50 values were generated for various cell lines. Cells were heavily seeded in 24-well Falcon plates and allowed to form nearly confluent monolayers overnight. Thirty minutes prior to the addition of the test compound, spent medium was aspirated from all wells and replaced with fresh folate-deficient RPMI medium (FFRPMI). A subset of wells were designated to receive media containing 100 μM folic acid. The cells in the designated wells were used to determine the targeting specificity. Without being bound by theory it is believed herein that the cytotoxic activity produced by test compounds in the presence of excess folic acid, i.e. where there is competition for FR binding, corresponds to the portion of the total activity that is unrelated to FR-specific delivery. Following one rinse with 1 mL of fresh FFRPMI containing 10% heat-inactivated fetal calf serum, each well received 1 mL of medium containing increasing concentrations of test compound (4 wells per sample) in the presence or absence of 100 μM free folic acid as indicated. Treated cells were pulsed for 2 h at 37° C., rinsed 4 times with 0.5 mL of media, and then chased in 1 mL of fresh medium up to 70 h. Spent medium was aspirated from all wells and replaced with fresh medium containing 5 μCi/mL ^3H-thymidine. Following a further 2 h 37° C. incubation, cells were washed 3 times with 0.5 mL of PBS and then treated with 0.5 mL of ice-cold 5% trichloroacetic acid per well. After 15 min, the trichloroacetic acid was aspirated and the cell material solubilized by the addition of 0.5 mL of 0.25 N sodium hydroxide for 15 min. A 450 μL aliquot of each solubilized sample was transferred to a scintillation vial containing 3 mL of Ecolume scintillation cocktail and then counted in a liquid scintillation counter. Final results are expressed as the percentage of ^3H-thymidine incorporation relative to untreated controls.

[2] = test system: AN3CA; test: as above; type: cell-based, human; conditions: FR expression −; evaluated from 0.1-100 nM
Protocol: as §1

[3] = test system: H23; test: as above; type: cell-based, human; conditions: FR expression −; evaluated from 0.1-100 nM
Protocol: as §1

[4] = test system: HepG2; test: as above; type: cell-based, human; conditions: FR expression −; evaluated from 0.1-100 nM
Protocol: as §1

[5] = test system: IGROV1; test: as above; type: cell-based, human
Protocol: as §1

[6] = test system: LNCaP; test: as above; type: cell-based, human; conditions: FR expression −
Protocol: as §1

[7] = test system: MDA-MB-231; test: as above; type: cell-based, human
Protocol: as §1

[8] = test system: NCl/ADR-RES-Cl2; test: as above; type: cell-based, human
Protocol: as §1

[9] = test system: MDA-MB-231 tumors; test: TNBC Tumor Assay, s.c. MDA-MB-231 xenografts; type: in vivo, nu/nu mice
Text: METHOD. TNBC Tumor Assay. Triple negative breast cancer (TNBC) is a subtype characterized by lack of gene expression for estrogen, progesterone and Her2/neu. TNBC is difficult to treat, and the resulting death rate in patients is reportedly disproportionately higher than for any other subtype of breast cancer. A TNBC xenograft model was generated in an analogous way to the KB and M109 models described herein by implanting MDA-MB-231 breast cancer cells in nu/nu mice. Dosing was initiated when the s.c. tumors have an average volume between 110-150 (generally 130) mm^3 (t0), typically 17 days post tumor inoculation (PTI). Test animals (5/group) were injected i.v., generally three times a week (TIW), for 2-3 weeks with varying doses, such as with 1 μmol/kg to 5 μmol/kg, of the drug delivery conjugate or with an equivalent dose volume of PBS (control), unless otherwise indicated. Dosing solutions were prepared fresh each day in PBS and administered through the lateral tail vein of the mice.

[10] = test system: KB-DR150 tumors; test: Vinca resistant KB-DR150 tumor model; type: in vivo, immunodeficient (XID) nu/nu mice
[11] = Maximum tolerated dose (MTD); type: in vivo, female Sprague-Dawley rats
Protocol: Maximum tolerated dose (MTD). […] Test compounds were administered by i.v., BIW, 2 wks in female Sprague-Dawley rats. […] Histopathologic changes were not observed with doses of EC1456 at or below the MTD.

[12] = Toxicity as measured by weight loss / gross animal toxicity in tumor-bearing mice; conditions: for Toxicity Avg. Weight Loss / Toxicity Deaths (%): TIW
Protocol: METHOD. Toxicity as Measured by Weight Loss. The percentage weight change of the test animals was determined on selected days post-tumor inoculation (PTI), and during dosing. The results were graphed.
Evaluation. Tumor size was monitored and body weight measured 3 times/week. Attention was given to gross animal morphology and behavior. Euthanasia was performed if the mice lost >20% of weight or when the tumors reached a size of 1500 mm3. Euthanasia was also performed at the researcher's discretion if mice lost a lot of weight in a short duration or when mice were approaching moribund conditions. Blood samples were collected by cardiac puncture from all viable animals from selected cohorts. Heart, lungs, liver, spleen, kidney, intestines, bone, brain and muscle were obtained immediately after euthanasia. The tissues were removed and stored in 10% neutral-buffered formalin.

[13] = KB tumors, 0.5 μmol/kg, 3 weeks
[14] = KB tumors, 0.67 μmol/kg, 2 weeks
[15] = KB tumors, 1.0 μmol/kg, 2 weeks
[16] = KB tumors, 2.0 μmol/kg, 2 weeks

## CCCC(=O)OCN(C(=O)[C@@H](NC(=O)[C@H]1CCCCN1C)C(C)CC)[C@H](C[C@@H](OC(C)=O)c1nc(C(=O)N[C@@H](Cc2ccc(O)cc2)C[C@H](C)C(=O)NNC(=O)OCCSSC[C@@H](NC(=O)[C@H](CCC(=O)NC[C@H](O)[C@@H](O)[C@H](O)[C@H](O)CO)NC(=O)[C@@H](CCC(=O)O)NC(=O)[C@H](CCC(=O)NC[C@H](O)[C@@H](O)[C@H](O)[C@H](O)CO)NC(=O)[C@@H](CCC(=O)O)NC(=O)[C@H](CCC(=O)NC[C@H](O)[C@@H](O)[C@H](O)[C@H](O)CO)NC(=O)CC[C@@H](NC(=O)c2ccc(NCc3cnc4nc(N)[nH]c(=O)c4n3)cc2)C(=O)O)C(=O)O)cs1)C(C)C (stereo in doubt) [EC1456]
[1]
  Activity (IC50): Inactive (a)
[2]
  Activity (IC50): Inactive
[3]
  Activity (IC50): Inactive
[4]
  Activity (IC50): Inactive
[5]; FR expression +
  IC50: 0.72 nM
[5]; folic acid competition
  Competable up to 100 nM: Yes
[6]
  IC50: ~850 nM
[7]; FR expression +
  IC50: 0.47 nM
[7]; folic acid competition
  Competable up to 100 nM: Yes
[8]; FR expression ++
  IC50: 1.4 nM
[8]; folic acid competition
  Competable up to 100 nM: Yes
[9]; 2 μmol/kg i.v. TIW 2 weeks, observation window nearly 135 days
  tumor regrowth: regrowth did not occur
[9]; 2 μmol/kg intravenous, three times per week, 2 consecutive weeks
  complete responses (tumor volume reduced to zero): 4 of 5
[10]; EC1456 2 μmol/kg TIW×2 + DOXIL 5 mg/kg BIW×2
  efficacy of co-administration of EC1456 and doxorubicin: enhanced technical effect over both monotherapies
[10]; EC1456 2 μmol/kg TIW×2 vs DOXIL 5 mg/kg BIW×2
  efficacy of EC1456 alone compared to doxorubicin (DOXIL): improved efficacy over doxorubicin
[11]; doses at or below the MTD
  Histopathologic changes: not observed
[11]; female, Sprague-Dawley, rat, in vivo, iv, BIW, 2 wks
  MTD at 2 wks: ≥ 0.51 µmol/kg
[11]; i.v., BIW, 2 wks
  improvement of MTD over EC0531: 65%
[12]; KB tumors in nu/nu mice, 1 μmol/kg TIW, 2 weeks
  whole animal toxicity as determined by animal body weight: did not result in any observable whole animal toxicity; also recorded: did not show any evidence of whole animal toxicity
[12]; KB tumors, carboplatin/paclitaxel study, EC1456 alone 1 μmol/kg BIW×2
  gross animal toxicity: Gross animal toxicity was not observed
[12]; KB tumors, carboplatin/paclitaxel study, carboplatin in combination with EC1456
  toxicity: Mild toxicity
[12]; [13]
  Toxicity Avg. Weight Loss: <5%*
  Toxicity Deaths (%): 0%
[12]; [14]
  Toxicity Avg. Weight Loss: <2%
  Toxicity Deaths (%): 0%
[12]; [15]
  Toxicity Avg. Weight Loss: <1.5%
  Toxicity Deaths (%): 0%
[12]; [16]
  Toxicity Avg. Weight Loss: <3%
  Toxicity Deaths (%): 0%
[12]; KB tumors, EC1456 alone 1 μmol/kg BIW×2
  gross animal toxicity: Gross animal toxicity was not observed
[12]; KB tumors, EC1456 alone 1 μmol/kg TIW×5
  gross animal toxicity: Gross animal toxicity was not observed
[12]; KB tumors, cisplatin 3 mg/kg BIW×3 in combination with EC1456
  toxicity: Mild toxicity
[12]; KB tumors, docetaxel 7 mg/kg BIW×3 in combination with EC1456
  toxicity: Mild toxicity
[12]; KB-CR2000 tumors, EC1456 2 μmol/kg TIW 2 weeks
  weight loss / host animal toxicity: did not exhibit significant host animal toxicity; also recorded: did not cause any weight loss
[12]; KB-DR150 tumors, EC1456 alone 2 μmol/kg TIW×2
  gross animal toxicity: Gross animal toxicity was not observed
[12]; KB-DR150 tumors, doxorubicin in combination with EC1456
  toxicity: Mild toxicity
[12]; M109 tumors, EC1456 alone 2 μmol/kg TIW×2
  gross animal toxicity: Gross animal toxicity was not observed
[12]; M109 tumors, cisplatin in combination with EC1456
  toxicity: Mild toxicity
[12]; MDA-MB-231 tumors, 2 μmol/kg i.v. TIW 2 weeks
  weight loss / gross whole animal toxicity (% weight change): did not cause gross whole animal toxicity; also recorded: not accompanied by significant weight loss
[12]; P-1635 KB tumors, EC1456 alone 1 μmol/kg TIW×2
  gross animal toxicity: Gross animal toxicity was not observed
[12]; P-1635 KB tumors, carboplatin 50 mg/kg TIW in combination with EC1456
  toxicity: Mild toxicity
